Source: article PMC4241043

Tests used:
[1] = target: protein FAF (F. magna adhesion factor), recombinant, amino acids 28-616 (F. magna); assay: SPR
[2] = target: FAF-expressing strains (ALB8, L3410, 1462 and 2133); assay: radioligand binding
[3] = target: protein FAF on the surface of F. magna strain ALB8 (F. magna (endogenous in strain ALB8)); assay: radioligand binding

Chain of galectin-7 (P47929 whole entry, the tested form may be a part): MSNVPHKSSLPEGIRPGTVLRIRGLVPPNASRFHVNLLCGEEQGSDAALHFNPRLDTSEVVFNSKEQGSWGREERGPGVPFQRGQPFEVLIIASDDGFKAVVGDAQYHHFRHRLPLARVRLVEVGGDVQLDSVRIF

Row | Substance | Kd [1] [nM] | percent of added radiolabelled galectin-7 bound [2] [%] | percent binding of 125I-labelled fragment [3] [%]
1 | galectin-7 (from UniProt P47929 1-136) (natural protein) | 0.53 | 20 to 30 | –
2 | rF16, N-terminal half of fibrillin-1 (domain or fragment) | – | – | 24
3 | rFBN2-2, N-terminal half of fibrillin-2 (domain or fragment) | – | – | 17
